Assays:
biotinylated VEGF [1] = biological target: T1, biotinylated VEGF (human, UniProt P15692-4 27-191, limits assumed, biotinylated (sites not given)); test: competition ELISA with VEGFR2/Fc for biotinylated VEGF; 6% 1008, 9% sucrose, 20 mM citrate, 0.1% PS80, pH 6.25; 25 C, 8 weeks
T1 construct: The ELISA paragraph says only 'biotinylated VEGF'; also called human vascular endothelial growth factor A; VEGF-A
Protocol: (§1) The competition ELISA was used for potency testing.
(§2) The samples were stored at 2-8° C., 25° C., 40° C. and light cabinet (LC); they also went through three cycles of freeze-thaw (FT). The samples were pulled according to the schedule shown in Table 30, and analyzed by various analytical methods.

biotinylated VEGF [2] = biological target: T1, biotinylated VEGF; test: competition ELISA with VEGFR2/Fc for biotinylated VEGF; 6% 1008, 9% sucrose, 20 mM citrate, 0.1% PS80, pH 6.25; 40 C, 4 weeks
Protocol: as §1, §2

biotinylated VEGF [3] = biological target: T1, biotinylated VEGF; test: competition ELISA with VEGFR2/Fc for biotinylated VEGF; 6% 1008, 9% sucrose, 20 mM citrate, 0.1% PS80, pH 6.25; 2-8 C, 0 weeks
Protocol: as §1, §2

biotinylated VEGF [4] = biological target: T1, biotinylated VEGF; test: competition ELISA with VEGFR2/Fc for biotinylated VEGF; 6% 1008, 9% sucrose, 20 mM citrate, 0.1% PS80, pH 6.25; 2-8 C, 8 weeks
Protocol: as §1, §2

biotinylated VEGF [5] = biological target: T1, biotinylated VEGF; test: competition ELISA with VEGFR2/Fc for biotinylated VEGF; 6% 1008, 9% sucrose, 20 mM citrate, 0.1% PS80, pH 6.25; 25 C, 12 weeks
Protocol: as §1, §2

biotinylated VEGF [6] = biological target: T1, biotinylated VEGF; test: competition ELISA with VEGFR2/Fc for biotinylated VEGF; 6% 1008, 9% sucrose, 20 mM citrate, 0.1% PS80, pH 6.25; 25 C, 26 weeks
Protocol: as §1, §2

biotinylated VEGF [7] = biological target: T1, biotinylated VEGF; test: competition ELISA with VEGFR2/Fc for biotinylated VEGF; 6% 1008, 9% sucrose, 20 mM citrate, 0.1% PS80, pH 6.25; 2-8 C, 12 weeks
Protocol: as §1, §2

biotinylated VEGF [8] = biological target: T1, biotinylated VEGF; test: competition ELISA with VEGFR2/Fc for biotinylated VEGF; 6% 1008, 9% sucrose, 20 mM citrate, 0.1% PS80, pH 6.25; 2-8 C, 26 weeks
Protocol: as §1, §2

biotinylated VEGF [9] = biological target: T1, biotinylated VEGF; test: competition ELISA with VEGFR2/Fc for biotinylated VEGF; 6% 1008, 9% sucrose, 20 mM citrate, 0.1% PS80, pH 6.25; 40 C column, 0 weeks (initial)
Protocol: as §1, §2

biotinylated VEGF [10] = biological target: T1, biotinylated VEGF; test: competition ELISA with VEGFR2/Fc for biotinylated VEGF; control formulation (60 mg/ml 1008, 20 mM citrate, 0.001% PS20, pH 6.25), 5 weeks at 40 C
Protocol: as §1
The control formulation was filtered through 0.2 um syringe filter and stored at 40° C., ambient room temperature, and refrigerator. The samples were pulled at 0, 2 and 5 weeks for 40° C. samples, and 26 weeks for samples stored at ambient room temperature and refrigerator. The selected stability samples were tested for pH, osmolality, content by A280, SEC, IEX CGE and ELISA.

T1 sequence (P15692 other isoform, or with tags, fused parts or gaps limits assumed): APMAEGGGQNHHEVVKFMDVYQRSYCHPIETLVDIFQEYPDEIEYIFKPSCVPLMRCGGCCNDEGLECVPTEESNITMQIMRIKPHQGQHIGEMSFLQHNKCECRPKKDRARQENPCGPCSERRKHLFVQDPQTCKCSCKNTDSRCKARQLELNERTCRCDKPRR

B1: 1008 antibody (scFv)
scFv: MEIVMTQSPSTLSASVGDRVIITCQASEIIHSWLAWYQQKPGKAPKLLIYLASTLASGVPSRFSGSGSGAEFTLTISSLQPDDFATYYCQNVYLASTNGANFGQGTKLTVLGGGGGSGGGGSGGGGSGGGGSEVQLVESGGGLVQPGGSLRLSCTASGFSLTDYYYMTWVRQAPGKGLEWVGFIDPDDDPYYATWAKGRFTISRDNSKNTLYLQMNSLRAEDTAVYYCAGGDHNSGWGLDIWGQGTLVTVSS
notes: also called anti-VEGF antibody
ELISA (relative potency against 1008 reference standard) (biotinylated VEGF [1]): 1.1 ratio to 1008 reference standard | ELISA (relative potency against 1008 reference standard) (biotinylated VEGF [2]): 0.87 ratio to 1008 reference standard | ELISA (relative potency against 1008 reference standard) (biotinylated VEGF [3]): 0.86 ratio to 1008 reference standard | ELISA (relative potency against 1008 reference standard) (biotinylated VEGF [4]): 1.2 ratio to 1008 reference standard | ELISA (relative potency against 1008 reference standard) (biotinylated VEGF [5]): 0.92 ratio to 1008 reference standard | ELISA (relative potency against 1008 reference standard) (biotinylated VEGF [6]): 1.1 ratio to 1008 reference standard | ELISA (relative potency against 1008 reference standard) (biotinylated VEGF [7]): 0.97 ratio to 1008 reference standard | ELISA (relative potency against 1008 reference standard) (biotinylated VEGF [8]): 1.1 ratio to 1008 reference standard | ELISA (relative potency against 1008 reference standard) (biotinylated VEGF [9]): 0.86 ratio to 1008 reference standard | ELISA (relative potency against 1008 reference standard) (biotinylated VEGF [10]): 1 ratio to 1008 reference standard
